Residue numbers refer to the chain shown, from its start. Names and notes keep the numbering of the source.

In general, koff refers to the rate constant with which the complex falls apart. As a reminder, the Kd is a measure of binding affinity in units of concentration. Usually kon stands for the second-order rate constant of association.

First the molecules themselves.
B1: anti-IL-6 Fab, light chain S55V (Fab, V domains shown)
VH: EVQLVESGGGLVQPGGSLRLSCAASGFTFSPFAMSWVRQAPGKGLEWVAKISPGGSWTYYSDTVTGRFTFSLDTSKSTAYLQMNSLRAEDTAVYYCARQLWGYYALDIWGQGTLVTVSS
VL: DIQLTQSPSSLSASVGDRVTITCSASISVSYMYWYQQKPGKAPKLLIYDMSNLAVGVPSRFSGSGSGTDFTLTISSLQPEDFATYYCMQWSGYPYTFGQGTKVEIK
notes: see m39
B2: anti-IL-6 Fab, heavy chain I108E (Fab, V domains shown)
VH: B1 VH with I108E
VL: B1 VL with V55S
B3: anti-IL-6 Fab, heavy chain Y104V (Fab, V domains shown)
VH: B1 VH with Y104V
VL: B1 VL with V55S
B4: anti-IL-6 Fab, heavy chain L100K (Fab, V domains shown)
VH: B1 VH with L100K
VL: B1 VL with V55S
B5: anti-IL-6 Fab, heavy chain Q99A (Fab, V domains shown)
VH: B1 VH with Q99A
VL: B1 VL with V55S
B6: anti-IL-6 Fab, heavy chain I108S (Fab, V domains shown)
VH: B1 VH with I108S
VL: B1 VL with V55S
B7: anti-IL-6 Fab, heavy chain D107E (Fab, V domains shown)
VH: B1 VH with D107E
VL: B1 VL with V55S
B8: anti-IL-6 Fab, heavy chain Y103S (Fab, V domains shown)
VH: B1 VH with Y103S
VL: B1 VL with V55S
B9: anti-IL-6 Fab, heavy chain Y103E (Fab, V domains shown)
VH: B1 VH with Y103E
VL: B1 VL with V55S
B10: anti-IL-6 Fab, heavy chain A97V (Fab, V domains shown)
VH: B1 VH with A97V
VL: B1 VL with V55S
B11: anti-IL-6 Fab, heavy chain Q99H (Fab, V domains shown)
VH: B1 VH with Q99H
VL: B1 VL with V55S
B12: anti-IL-6 Fab, heavy chain G102D (Fab, V domains shown)
VH: B1 VH with G102D
VL: B1 VL with V55S
B13: anti-IL-6 Fab, heavy chain A105Q (Fab, V domains shown)
VH: B1 VH with A105Q
VL: B1 VL with V55S
B14: anti-IL-6 Fab, light chain Y31F (Fab, V domains shown)
VH: B1 VH
VL: B1 VL with Y31F, V55S
notes: see m39
B15: anti-IL-6 Fab, light chain Y95G (Fab, V domains shown)
VH: B1 VH
VL: B1 VL with V55S, Y95G
notes: see m39
B16: anti-IL-6 Fab, light chain Y33F (Fab, V domains shown)
VH: B1 VH
VL: B1 VL with Y33F, V55S
notes: see m39
B17: anti-IL-6 Fab, light chain Y31G (Fab, V domains shown)
VH: B1 VH
VL: B1 VL with Y31G, V55S
notes: see m39
B18: anti-IL-6 Fab, light chain V29L (Fab, V domains shown)
VH: B1 VH
VL: B1 VL with V29L, V55S
notes: see m39
B19: anti-IL-6 Fab, light chain Y48F (Fab, V domains shown)
VH: B1 VH
VL: B1 VL with Y48F, V55S
notes: see m39
B20: anti-IL-6 Fab, light chain Y95I (Fab, V domains shown)
VH: B1 VH
VL: B1 VL with V55S, Y95I
notes: see m39
B21: anti-IL-6 Fab, light chain T96V (Fab, V domains shown)
VH: B1 VH
VL: B1 VL with V55S, T96V
notes: see m39
B22: anti-IL-6 Fab, light chain S91K (Fab, V domains shown)
VH: B1 VH
VL: B1 VL with V55S, S91K
notes: see m39
B23: anti-IL-6 Fab, light chain S55W (Fab, V domains shown)
VH: B1 VH
VL: B1 VL with V55W
notes: see m39
B24: anti-IL-6 Fab, light chain Y48W (Fab, V domains shown)
VH: B1 VH
VL: B1 VL with Y48W, V55S
notes: see m39
B25: anti-IL-6 Fab, light chain T96I (Fab, V domains shown)
VH: B1 VH
VL: B1 VL with V55S, T96I
notes: see m39
B26: anti-IL-6 Fab, light chain S91A (Fab, V domains shown)
VH: B1 VH
VL: B1 VL with V55S, S91A
notes: see m39
B27: anti-IL-6 Fab, light chain S55Y (Fab, V domains shown)
VH: B1 VH
VL: B1 VL with V55Y
notes: see m39
B28: anti-IL-6 Fab, light chain T96L (Fab, V domains shown)
VH: B1 VH
VL: B1 VL with V55S, T96L
notes: see m39
B29: anti-IL-6 antibody, light chain Q89A (heavy chain WT) (antibody, V domains shown)
VH: B1 VH
VL: B1 VL with V55S, Q89A
notes: See note of m2; also called WT / Q89A
B30: anti-IL-6 antibody, light chain N52S (heavy chain WT) (antibody, V domains shown)
VH: B1 VH
VL: B1 VL with N52S, V55S
notes: See note of m2; also called WT / N52S
B31: anti-IL-6 antibody, light chain L53H (heavy chain WT) (antibody, V domains shown)
VH: B1 VH
VL: B1 VL with L53H, V55S
notes: See note of m2; also called WT / L53H
B32: anti-IL-6 antibody, light chain A54G (heavy chain WT) (antibody, V domains shown)
VH: B1 VH
VL: B1 VL with A54G, V55S
notes: See note of m2; also called WT / A54G
B33: anti-IL-6 antibody, light chain A54Y (heavy chain WT) (antibody, V domains shown)
VH: B1 VH
VL: B1 VL with A54Y, V55S
notes: See note of m2; also called WT / A54Y
B34: anti-IL-6 antibody, light chain I47V (heavy chain WT) (antibody, V domains shown)
VH: B1 VH
VL: B1 VL with I47V, V55S
notes: See note of m2; also called WT / 147V
B35: anti-IL-6 antibody, light chain L53R (heavy chain WT) (antibody, V domains shown)
VH: B1 VH
VL: B1 VL with L53R, V55S
notes: See note of m2; also called WT / L53R
B36: anti-IL-6 antibody, light chain A54L (heavy chain WT) (antibody, V domains shown)
VH: B1 VH
VL: B1 VL with A54L, V55S
notes: See note of m2; also called WT / A54L
B37: anti-IL-6 antibody, light chain L53W (heavy chain WT) (antibody, V domains shown)
VH: B1 VH
VL: B1 VL with L53W, V55S
notes: See note of m2; also called WT / L53W
B38: anti-IL-6 antibody, light chain Q89S (heavy chain WT) (antibody, V domains shown)
VH: B1 VH
VL: B1 VL with V55S, Q89S
notes: See note of m2; also called WT / Q89S
B39: anti-IL-6 antibody, light chain L46V (heavy chain WT) (antibody, V domains shown)
VH: B1 VH
VL: B1 VL with L46V, V55S
notes: See note of m2; also called WT / L46V

The first test deals with recombinant human IL-6 (human, UniProt P05231 30-212). The experiment in a line: SPR, IL-6 on CM5 chip, Fab lysate, 25 C.
Target sequence in this assay (P05231 30-212 limits assumed): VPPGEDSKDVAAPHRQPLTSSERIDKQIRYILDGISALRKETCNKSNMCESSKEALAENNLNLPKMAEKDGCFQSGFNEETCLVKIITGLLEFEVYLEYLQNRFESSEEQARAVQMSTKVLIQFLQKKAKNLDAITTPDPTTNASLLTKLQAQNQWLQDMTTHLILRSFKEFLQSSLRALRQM
B1: the koff stood at 0.00516 s⁻¹.

On to B2, for which the koff was 0.00308 s⁻¹.

B3: the koff came to 0.00381 s⁻¹.

B4: the koff worked out at 0.00287 s⁻¹.

As for B5, the koff is 0.00388 s⁻¹.

For the molecule B6, the koff is 0.00352 s⁻¹.

On to B7, for which the koff was determined as 0.00438 s⁻¹.

In the case of B8, the koff amounted to 0.00502 s⁻¹.

Take B9: the koff was 0.00512 s⁻¹.

With B10, the koff came out at 0.00412 s⁻¹.

With B11, the koff amounted to 0.00441 s⁻¹.

As to B12, the koff came to 0.00389 s⁻¹.

For the molecule B13, the koff came out at 0.00401 s⁻¹.

For B14, the koff came to 0.0051 s⁻¹.

Consider B15, for which the dissociation rate constant (koff) was found to be 0.00462 s⁻¹.

As for B16, the koff is 0.00618 s⁻¹.

On to B17, for which the koff was determined as 0.00511 s⁻¹.

In the case of B18, the koff was 0.00543 s⁻¹.

B19: the koff amounted to 0.00537 s⁻¹.

Turning to B20, the koff worked out at 0.00608 s⁻¹.

As to B21, the koff amounted to 0.00504 s⁻¹.

For the molecule B22, the koff stood at 0.00549 s⁻¹.

On to B23, for which the koff was 0.0051 s⁻¹.

As to B24, the koff is 0.00563 s⁻¹.

As to B25, the koff was found to be 0.00423 s⁻¹.

On to B26, for which the koff was determined as 0.00559 s⁻¹.

Turning to B27, the koff was 0.00508 s⁻¹.

On to B28, for which the koff came out at 0.00478 s⁻¹.

The next test deals with T1, recombinant human IL-6 (human, UniProt P05231 30-212).
T1 construct: Bought protein
The experiment in a line: SPR Biacore, supernatant Ab on Protein A chip, IL-6 analyte, 25 C. As for the experimental part: Antibodies were captured on a Protein A chip (GE) by injecting 1:20 dilution of cell supernatant at 10 μL/min for 60 seconds. […] The sensor chip was regenerated by a 60 seconds injection of 10 mM Glycine pH 1.7 at flow rate of 50 μL/min. […] For this setup, 1 μg/mL of purified antibody was injected over a Protein A chip at 10 μL/min for 25-28 seconds. Data analysis for supernatant and purified samples were performed using BIAevaluation software (GE). All sensorgrams were double reference subtracted and fit using a 1:1 Langmuir binding model.
For orientation: In SPR one partner is held on a chip, and binding of the other changes the refractive index at the surface.
T1 sequence (P05231 30-212 limits assumed): as above
Take B29: the Kd was found to be 0.419 nM, the koff was 0.000227 s⁻¹ and the kon worked out at 543000 M⁻¹ s⁻¹.

For the molecule B30, the Kd worked out at 0.353 nM, the koff came out at 0.000152 s⁻¹ and the kon came out at 430000 M⁻¹ s⁻¹.

In the case of B31, the Kd is 0.401 nM, the koff came out at 0.000218 s⁻¹ and the kon was found to be 544000 M⁻¹ s⁻¹.

B32: the Kd came to 0.416 nM, the koff is 0.000198 s⁻¹ and the kon was 475000 M⁻¹ s⁻¹.

With B33, the Kd was determined as 0.168 nM, the koff turned out to be 0.000109 s⁻¹ and the kon amounted to 652000 M⁻¹ s⁻¹.

Turning to B34, the Kd turned out to be 0.414 nM, the koff was found to be 0.000195 s⁻¹ and the kon turned out to be 471000 M⁻¹ s⁻¹.

As to B35, the Kd worked out at 0.446 nM, the koff stood at 0.000185 s⁻¹ and the kon was determined as 416000 M⁻¹ s⁻¹.

In the case of B36, the Kd turned out to be 0.499 nM, the koff was 0.00021 s⁻¹ and the kon was determined as 420000 M⁻¹ s⁻¹.

Take B37: the Kd was 0.00518 nM, the koff was 6.14e-06 s⁻¹ and the kon turned out to be 1.19e+06 M⁻¹ s⁻¹.

As for B38, the Kd was 0.752 nM, the koff came out at 0.000272 s⁻¹ and the kon is 362000 M⁻¹ s⁻¹.

On to B39, for which the Kd stood at 0.442 nM, the koff turned out to be 0.000203 s⁻¹ and the kon was 460000 M⁻¹ s⁻¹.

These data come from patent US20240209076A1 (KODIAK SCIENCES, published 2024).
